Measured values: patent US10428140B2, “Anti-EphA4 antibody” (EISAI R&D MANAGEMENT CO., LTD., priority 2015, dated 2019)

T1: human EphA1 (Homo sapiens, UniProt P21709)
T1 construct: a protein of the extracellular region of each human Eph receptor fused with the SEAP protein and the His tag; made in house; host or cells: Expi293F cells (culture supernatant)
T1 sequence (P21709 26-547 limits assumed): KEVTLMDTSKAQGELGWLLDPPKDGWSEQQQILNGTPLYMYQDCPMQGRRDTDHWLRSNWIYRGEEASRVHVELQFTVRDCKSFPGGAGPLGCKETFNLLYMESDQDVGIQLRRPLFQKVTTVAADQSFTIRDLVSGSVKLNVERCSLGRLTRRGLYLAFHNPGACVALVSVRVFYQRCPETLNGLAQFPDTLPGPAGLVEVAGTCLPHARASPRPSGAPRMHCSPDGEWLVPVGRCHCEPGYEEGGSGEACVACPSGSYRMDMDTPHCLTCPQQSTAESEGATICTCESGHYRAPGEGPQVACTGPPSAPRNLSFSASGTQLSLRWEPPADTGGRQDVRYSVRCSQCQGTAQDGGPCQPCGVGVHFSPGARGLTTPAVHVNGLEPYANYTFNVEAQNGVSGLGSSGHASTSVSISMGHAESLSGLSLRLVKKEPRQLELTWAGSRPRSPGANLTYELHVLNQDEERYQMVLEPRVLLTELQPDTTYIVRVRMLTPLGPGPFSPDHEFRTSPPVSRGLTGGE


Legend:
[1] = biological target: T1, human EphA1; test: Selectivity ELISA of humanized antibodies for human Eph receptor; assay type: binding; conditions: coated protein 1 nM
Method in brief: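 Steps: coat anti-His antibody; block, then 1% BlockAce overnight at 4 °C; add Eph receptor extracellular region-SEAP-His (1 nM final) 1 h; add humanized antibody 1 h; add HRP anti-IgG 1 h; develop TMB; stop with acid; read 450 nm.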

[2] = biological target: T2, human EphA4 (Homo sapiens, UniProt P54764); test: Affinity of humanized antibodies by SPR (Biacore T200); assay type: binding; conditions: human EphA4 extracellular region-SEAP-His; for ka / kd: 1:1 binding model; for Kd: KD=kd/ka
T2 construct: made in house; not restated for the human SEAP-His protein
Method in brief: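 Humanized antibodies captured on protein A chip (antibody A via immobilized rat anti-mouse IgG1) at about 30 to 60 RU in HBS-EP; human EphA4 extracellular region-SEAP-His injected single-cycle at 0.6 to 50 nM, 120 s association, 900 s dissociation. KD = kd/ka from 1:1 binding fits.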

T2 sequence (P54764 20-547): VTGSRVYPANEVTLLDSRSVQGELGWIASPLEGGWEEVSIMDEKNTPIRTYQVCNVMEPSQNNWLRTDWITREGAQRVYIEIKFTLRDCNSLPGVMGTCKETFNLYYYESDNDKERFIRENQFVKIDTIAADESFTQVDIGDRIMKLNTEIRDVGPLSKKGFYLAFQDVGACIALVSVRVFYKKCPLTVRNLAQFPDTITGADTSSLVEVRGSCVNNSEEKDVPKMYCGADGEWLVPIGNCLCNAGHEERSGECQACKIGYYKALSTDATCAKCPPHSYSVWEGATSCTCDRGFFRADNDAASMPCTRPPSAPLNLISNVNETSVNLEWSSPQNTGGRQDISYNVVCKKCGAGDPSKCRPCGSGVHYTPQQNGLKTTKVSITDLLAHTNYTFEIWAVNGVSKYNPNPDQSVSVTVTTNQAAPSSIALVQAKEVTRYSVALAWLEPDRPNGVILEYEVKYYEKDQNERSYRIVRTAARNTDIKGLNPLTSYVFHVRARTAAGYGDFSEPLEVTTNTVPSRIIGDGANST

hEphA1-SEAP-: absorbance at 450 nm, percentage with respect to hEphA4-SEAP-His as 100% [1] [%] | ka [2] [M⁻¹ s⁻¹] | kd [2] [s⁻¹] | Kd [2] [nM] | Molecule
4.7 | 380000 | 0.00042 | 1.2 | 75 (antibody, synthetic humanized antibody heavy chain variable region sequence; synthetic humanized antibody light chain variable region sequence; synthetic antibody constant region sequence) VH: QVQLVQSGSELKKPGASVKVSCKASGYTFTDYSMHWVRQAPGQGLEWMGWINTETGEPTYAQGFTGRFVFSLDTSVSTAYLQISSLKAEDTAVYYCARIPLYYYGSRYWYFDVWGQGTTVTVSS VL: DIQMTQSPSSLSASVGDRVTITCRASENIYRNLAWYQQKPGKAPKLLVYAATNLADGVPSRFSGSGSGTDYTLTISSLQPEDFATYYCQHFWGTPWTFGQGTKVEIK ASTKGPSVFPLAPSSKSTSGGTAALGCLVKDYFPEPVTVSWNSGALTSGVHTFPAVLQSSGLYSLSSVVTVPSSSLGTQTYICNVNHKPSNTKVDKRVEPKSCDKTHTCPPCPAPPAAAPSVFLFPPKPKDTLMISRTPEVTCVVVDVSHEDPEVQFNWYVDGVEVHNAKTKPREEQFNSTFRVVSVLTVVHQDWLNGKEYKCKVSNKGLPAPIEKTISKTKGQPREPQVYTLPPSREEMTKNQVSLTCLVKGFYPSDIAVEWESNGQPENNYKTTPPMLDSDGSFFLYSKLTVDKSRWQQGNVFSCSVMHEALHNHYTQKSLSLSPG
4.6 | 330000 | 0.00035 | 1.1 | 67 (antibody, V domains shown, synthetic humanized antibody heavy chain variable region sequence; synthetic humanized antibody light chain variable region sequence) VH: QIQLVQSGSELKKPGASVKVSCKASGYTFTDYSMHWVRQAPGQGLKWMGWINTETGEPTYAQGFTGRFVFSLDTSVSTAYLQISSLKAEDTAVYYCARIPLYYYGSRYWYFDVWGQGTTVTVSS VL: DIQMTQSPSSLSASVGDRVTITCRASENIYRNLAWYQQKPGKAPKLLVYAATNLADGVPSRFSGSGSGTDYTLTISSLQPEDFATYYCQHFWGTPWTFGQGTKVEIK
4.5 | 410000 | 0.00058 | 1.4 | 77 (antibody, V domains shown, synthetic humanized antibody heavy chain variable region sequence; synthetic humanized antibody light chain variable region sequence) VH: QVQLVQSGSELKKPGASVKVSCKASGYTFTDYSMHWVRQAPGQGLEWMGWINTETGEPTYADDFKGRFVFSLDTSVSTAYLQISSLKAEDTAVYYCARIPLYYYGSRYWYFDVWGQGTTVTVSS VL: DIQMTQSPSSLSASVGDRVTITCRASENIYRNLAWYQQKPGKAPKLLVYAATNLADGVPSRFSGSGSGTDYTLTISSLQPEDFATYYCQHFWGTPWTFGQGTKVEIK
6.6 | 340000 | 0.00039 | 1.1 | 78 (antibody, V domains shown, synthetic humanized antibody heavy chain variable region sequence; synthetic humanized antibody light chain variable region sequence) VH: QVQLVQSGSELKKPGASVKVSCKASGYTFTDYSMHWVRQAPGQGLKWMGWINTETGEPTYADDFKGRFVFSLDTSVSTAYLQISSLKAEDTAVYYCARIPLYYYGSRYWYFDVWGQGTTVTVSS VL: DIQMTQSPSSLSASVGDRVTITCRASENIYRNLAWYQQKPGKAPKLLVYAATNLADGVPSRFSGSGSGTDYTLTISSLQPEDFATYYCQHFWGTPWTFGQGTKVEIK
5.1 | 330000 | 0.00034 | 1 | 76 (antibody, V domains shown, synthetic humanized antibody heavy chain variable region sequence; synthetic humanized antibody light chain variable region sequence) VH: QVQLVQSGSELKKPGASVKVSCKASGYTFTDYSMHWVRQAPGQGLKWMGWINTETGEPTYAQGFTGRFVFSLDTSVSTAYLQISSLKAEDTAVYYCARIPLYYYGSRYWYFDVWGQGTTVTVSS VL: DIQMTQSPSSLSASVGDRVTITCRASENIYRNLAWYQQKPGKAPKLLVYAATNLADGVPSRFSGSGSGTDYTLTISSLQPEDFATYYCQHFWGTPWTFGQGTKVEIK
